Measured values as given in the supplement of paper PMC10126150.
± gives the standard deviation of the averaged measurements.

Tested on: ATP
Assay: switch fluorescence ratio, 500 uM ATP over buffer (Cy3 cluster intensity, sum of 5 cycles each) (fold (ratio)); higher = stronger signal-on switching upon ATP binding; sequences stand for … in TCGTCGGCAGCGTCAGATGTGTATAAGAGACAGTTTTTTTTTTTTTTTTTTTTTTTTT…TC
Details: aptamer strand: ATP DNA aptamer (quencher-CACCTGGGGGAGTATTGCGGAGGAAGG + anchor), 100 nM annealed; ATP concentration: 500 uM
Summary of the method: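 The fluorescence ratio divides summed target-cycle Cy3 intensity by summed buffer-cycle Cy3 intensity for each cluster and is averaged per switch-domain sequence. Cy3-labelled switching-strand clusters on a modified Illumina MiSeq flow-cell were annealed to 100 nM quencher-labelled ATP aptamer, then imaged in selection buffer and again after 15 min with 500 uM ATP at 22 °C. Five such cycles were run, with NaOH stripping and re-annealing between them, and clusters outside 100-1000 RFU were excluded.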
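Note: ATP exposure 15 min at 22 °C before imaging.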

Sequence | switch fluorescence ratio
TGGGGGTCGC | 1.01 ± 0.019
TGGGGGTGAA | 1.02 ± 0.018
TGGGGGTGAC | 1.04 ± 0.038
TGGGGGTGCT | 1 ± 0.013
TGGGGGTTAG | 1.01 ± 0.021
TGGGGGTTGA | 1.01 ± 0.028
TGGGGTAAAG | 1.01 ± 0.033
TGGGGTAAGG | 1.01 ± 0.022
TGGGGTAGGG | 0.998 ± 0.026
TGGGGTAGTG | 1.01 ± 0.025
TGGGGTATAG | 1.01 ± 0.018
TGGGGTCAAG | 0.991 ± 0.01
TGGGGTCTAG | 0.969 ± 0.01
TGGGGTCTGG | 0.976 ± 0.026
TGGGGTCTGT | 0.993 ± 0.02
TGGGGTGCAG | 1.03 ± 0.017
TGGGGTGCAT | 0.993 ± 0.051
TGGGGTGTTT | 0.983 ± 0.045
TGGGGTTATA | 1.02 ± 0.023
TGGGGTTGGT | 0.993 ± 0.018
TGGGGTTGTC | 0.993 ± 0.034
TGGGGTTTGC | 0.991 ± 0.032
TGGGTAAGGT | 0.993 ± 0.028
TGGGTAATCA | 0.981 ± 0.036
TGGGTAGAAA | 0.975 ± 0.032

Sequence | switch fluorescence ratio
TGGGTAGGCG | 1.02 ± 0.016
TGGGTATAAA | 0.976 ± 0.029
TGGGTATAAC | 1 ± 0.018
TGGGTATACG | 1.01 ± 0.049
TGGGTATATT | 0.987 ± 0.011
TGGGTATGT | 1.03 ± 0.0087
TGGGTATTTT | 1.01 ± 0.026
TGGGTCAATA | 1.03 ± 0.054
TGGGTCCGCG | 1.123 ± 0.0092
TGGGTCCTTG | 0.9894 ± 0.0014
TGGGTGAAGC | 0.991 ± 0.059
TGGGTGCGCG | 1.014 ± 0.0063
TGGGTGCGGT | 0.991 ± 0.012
TGGGTGGGCC | 0.981 ± 0.023
TGGGTGTCGG | 1.04 ± 0.019
TGGGTGTGGT | 1 ± 0.025
TGGGTGTTAA | 0.974 ± 0.055
TGGGTGTTGG | 1.01 ± 0.057
TGGGTTAACA | 0.991 ± 0.018
TGGGTTACCT | 1.05 ± 0.01
TGGGTTAGCT | 1.04 ± 0.039
TGGGTTAGTG | 0.962 ± 0.017
TGGGTTCGAT | 1.02 ± 0.015
TGGGTTGATG | 0.959 ± 0.023
TGGGTTGGCA | 0.987 ± 0.029

Sequence | switch fluorescence ratio
TGGGTTGTCG | 1.02 ± 0.016
TGGGTTGTGT | 0.988 ± 0.028
TGGGTTTCTA | 0.964 ± 0.021
TGGGTTTGCG | 0.982 ± 0.021
TGGGTTTGGT | 1.01 ± 0.014
TGGGTTTTAG | 0.977 ± 0.013
TGGTAAAGTG | 1.08 ± 0.1
TGGTAATGGG | 1.01 ± 0.049
TGGTAATTGG | 0.98 ± 0.01
TGGTACGTAG | 1.03 ± 0.034
TGGTACGTGG | 0.974 ± 0.032
TGGTAGAGTT | 1 ± 0.016
TGGTAGCAGT | 0.989 ± 0.037
TGGTAGGGAA | 0.982 ± 0.014
TGGTATAGTA | 0.993 ± 0.019
TGGTATATTA | 0.983 ± 0.027
TGGTATCGGA | 0.977 ± 0.021
TGGTATGCGT | 1.02 ± 0.024
TGGTATTATT | 0.998 ± 0.024
TGGTATTGCT | 0.9955 ± 0.0098
TGGTCCAGTG | 1.03 ± 0.089
TGGTCCTGGT | 0.997 ± 0.019
TGGTCGCCGT | 0.978 ± 0.14
TGGTCGGTCT | 1.07 ± 0.074
TGGTCGTCGG | 0.985 ± 0.037

Sequence | switch fluorescence ratio
TGGTGAAAGA | 1.01 ± 0.029
TGGTGAAAGT | 0.982 ± 0.025
TGGTGAACGT | 1 ± 0.053
TGGTGACTAG | 0.967 ± 0.024
TGGTGCATTT | 1.06 ± 0.14
TGGTGCTAAG | 1.03 ± 0.02
TGGTGGAGTC | 1.02 ± 0.046
TGGTGGATGG | 1.22 ± 0.29
TGGTGGCTGG | 0.989 ± 0.028
TGGTGGGCGA | 1.04 ± 0.058
TGGTGGGGGA | 0.987 ± 0.015
TGGTGGGTGC | 1.04 ± 0.044
TGGTGGTCGC | 0.9778 ± 0.0044
TGGTGTAAGA | 1.04 ± 0.025
TGGTGTAAT | 1 ± 0.03
TGGTGTTTGG | 0.979 ± 0.032
TGGTTAAAAA | 0.98 ± 0.049
TGGTTAATGC | 1.48 ± 0.1
TGGTTAATGG | 0.989 ± 0.038
TGGTTACATG | 1.02 ± 0.014
TGGTTAGAAT | 0.986 ± 0.024
TGGTTAGTGT | 1.01 ± 0.057
TGGTTATGGG | 0.985 ± 0.022
TGGTTATGTT | 1.02 ± 0.023
TGGTTATTGT | 0.974 ± 0.032
